Laboratory results reported in patent US20250011456A1, “ANTIBODIES AGAINST CD14 AND USES THEREOF” (Villanelle Life Science Inc, priority 2023, published 2025).
“And” between values parts separate entries of the source, which are not always exact repeats. Equal entries are not always repeated.

Experiment: Mouse weight under anti-CD14-IgG1 dosages of Example 7 (PDX mice)
Format: in vivo
Procedure: To evaluate concentrations for the anti-CD14-IgG1 antibody, PDX mice were treated with five different concentrations of the IgG1 antibody over a period of 28 days. For these experiments, drug administration on the PDX mice was performed intravenously on alternating 4 days and 3 days.
The five different concentrations of the anti-CD14-IgG1 antibody tested include 5 mg/kg, 10 mg/kg, 15 mg/kg, 25 mg/kg, and 40 mg/kg. A control regimen was utilized as a comparative example. […] The non-specific IgG1 has no binding affinity to antigen. […] Tumor weight and tumor volume were calculated as described above.

B1: D6DD3D001: mouse-derived anti-CD14 IgG1 antibody; VH SEQ ID NO: 1, VL SEQ ID NO: 3, heavy chain SEQ ID NO: 2, light chain SEQ ID NO: 4 (antibody)
heavy: DVQLQQSGPGLVKPSQSLSLTCTVTGYSITSDSAWNWIRQFPGNRLEWMGYISYSGSTSYNPSLKSRISITRDTSKNQFFLQLNSVTTEDTATYYCVRGLRFAYWGQGTLVTVSSPSVFLFPPKPKDTLMISRTPEVTCVVVDVSHEDPEVKFNWYVDGVEVHNAKTKPREEQYNSTYRVVSVLTVLHQDWLNGKEYKCKVSNKALPAPIEKTISKAKGQPREPQVYTLPPSREEMTKNQVSLTCLVKGFYPSDIAVEWESNGQPENNYKTTPPVLDSDGSFFLYSKLTVDKSRWQQGNVFSCSVMHEALHNHYTQKSLSLSPGK
light: DIVLTQSPASLAVSLGQRATISCRASESVDSYVNSFLHWYQQKPGQPPKLLIYRASNLQSGIPARFSGSGSRTDFTLTINPVEADDVATYYCQQSNEDPYTFGGGTKLEIKRTVAAPSVFIFPPSDEQLKSGTASVVCLLNNFYPREAKVQWKVDNALQSGNSQESVTEQDSKDSTYSLSSTLTLSKADYEKHKVYACEVTHQGLSSPVTKSFNRGEC
Mouse Weight (Day 11, IgG1 (5 mg/kg), per mouse 1-5, 5 mg/kg): 20.85 g and 20.72 g and 20.22 g and 21.21 g and 20.94 g | Mouse Weight (Day 11, IgG1 (10 mg/kg), per mouse 1-5, 10 mg/kg): 20.77 g and 20.5 g and 20.97 g and 21.03 g and 20.94 g | Mouse Weight (Day 11, IgG1 (15 mg/kg), per mouse 1-5, 15 mg/kg): 20.35 g and 20.89 g and 21.32 g and 21.08 g and 20.47 g | Mouse Weight (Day 11, IgG1 (25 mg/kg), per mouse 1-5, 25 mg/kg): 20.11 g and 20.4 g and 19.5 g and 20.84 g and 21.5 g | Mouse Weight (Day 14, IgG1 (5 mg/kg), per mouse 1-5, 5 mg/kg): 20.75 g and 21.06 g and 20.89 g and 21.69 g and 20.67 g | Mouse Weight (Day 14, IgG1 (10 mg/kg), per mouse 1-5, 10 mg/kg): 20.15 g and 20.69 g and 21.19 g and 21.53 g and 20.71 g | Mouse Weight (Day 14, IgG1 (15 mg/kg), per mouse 1-5, 15 mg/kg): 20.47 g and 21.16 g and 21.65 g and 20.87 g and 21.13 g | Mouse Weight (Day 14, IgG1 (25 mg/kg), per mouse 1-5, 25 mg/kg): 20.13 g and 21.05 g and 20.39 g and 21.39 g and 21.62 g | Mouse Weight (Day 18, IgG1 (5 mg/kg), per mouse 1-5, 5 mg/kg): 21.11 g and 21.36 g and 20.44 g and 20.69 g and 21.33 g | Mouse Weight (Day 18, IgG1 (10 mg/kg), per mouse 1-5, 10 mg/kg): 21.27 g and 20.66 g and 21.04 g and 20.85 g and 21.37 g | Mouse Weight (Day 18, IgG1 (15 mg/kg), per mouse 1-5, 15 mg/kg): 20.73 g and 21.69 g and 20.31 g and 20.9 g and 21.29 g | Mouse Weight (Day 18, IgG1 (25 mg/kg), per mouse 1-5, 25 mg/kg): 21.14 g and 21.03 g and 20.46 g and 21.57 g and 21.77 g | Mouse Weight (Day 21, IgG1 (5 mg/kg), per mouse 1-5, 5 mg/kg): 20.92 g and 21.85 g and 21.42 g and 21.87 g and 21.66 g | Mouse Weight (Day 21, IgG1 (10 mg/kg), per mouse 1-5, 10 mg/kg): 21.25 g and 21.16 g and 20.97 g and 21.13 g and 21.28 g | Mouse Weight (Day 21, IgG1 (15 mg/kg), per mouse 1-5, 15 mg/kg): 20.6 g and 21.12 g and 21.33 g and 20.4 g and 21.98 g | Mouse Weight (Day 21, IgG1 (25 mg/kg), per mouse 1-5, 25 mg/kg): 21.3 g and 22.05 g and 21.54 g and 20.62 g and 21.57 g | Mouse Weight (Day 25, IgG1 (5 mg/kg), per mouse 1-5, 5 mg/kg): 22.45 g and 21.06 g and 21.98 g and 22.14 g and 22.16 g | Mouse Weight (Day 25, IgG1 (10 mg/kg), per mouse 1-5, 10 mg/kg): 22.27 g and 22.35 g and 21.64 g and 20.37 g and 22.93 g | Mouse Weight (Day 25, IgG1 (15 mg/kg), per mouse 1-5, 15 mg/kg): 22.28 g and 21.01 g and 22.42 g and 20.52 g and 22.73 g | Mouse Weight (Day 25, IgG1 (25 mg/kg), per mouse 1-5, 25 mg/kg): 22.17 g and 21.73 g and 22.39 g and 21.5 g and 20.56 g | Mouse Weight (Day 28, IgG1 (5 mg/kg), per mouse 1-5, 5 mg/kg): 22.42 g and 23.8 g and 22.04 g and 21.81 g and 21.72 g | Mouse Weight (Day 28, IgG1 (10 mg/kg), per mouse 1-5, 10 mg/kg): 22.71 g and 23.8 g and 21.44 g and 22.24 g and 21.16 g | Mouse Weight (Day 28, IgG1 (15 mg/kg), per mouse 1-5, 15 mg/kg): 22.57 g and 21.49 g and 23.11 g and 21.72 g and 23.44 g | Mouse Weight (Day 28, IgG1 (25 mg/kg), per mouse 1-5, 25 mg/kg): 22.62 g and 23.62 g and 22.69 g and 21.64 g and 23.4 g | Mouse Weight (IgG1 40 mg/kg group, Day 0, individual mice 1-5, 40 mg/kg): 20.64 g and 20.79 g and 20.06 g and 20.43 g and 19.66 g | Mouse Weight (IgG1 40 mg/kg group, Day 4, individual mice 1-5, 40 mg/kg): 20.37 g and 20.71 g and 19.79 g and 20.56 g and 20.73 g | Mouse Weight (IgG1 40 mg/kg group, Day 7, individual mice 1-5, 40 mg/kg): 20.29 g and 20.01 g and 20.53 g and 21.04 g and 20.66 g | Mouse Weight (IgG1 40 mg/kg group, Day 11, individual mice 1-5, 40 mg/kg): 20.49 g and 21.74 g and 20.21 g and 21.3 g and 20.92 g | Mouse Weight (IgG1 40 mg/kg group, Day 14, individual mice 1-5, 40 mg/kg): 21.19 g and 20.75 g and 20.83 g and 20.91 g and 20.61 g | Mouse Weight (IgG1 40 mg/kg group, Day 18, individual mice 1-5, 40 mg/kg): 21.32 g and 21.28 g and 21.36 g and 20.36 g and 21.14 g | Mouse Weight (IgG1 40 mg/kg group, Day 21, individual mice 1-5, 40 mg/kg): 21.75 g and 20.47 g and 21.5 g and 21.64 g and 21.77 g | Mouse Weight (IgG1 40 mg/kg group, Day 25, individual mice 1-5, 40 mg/kg): 22.33 g and 21.23 g and 22.07 g and 21.9 g and 22.06 g | Mouse Weight (IgG1 40 mg/kg group, Day 28, individual mice 1-5, 40 mg/kg): 23.59 g and 23.7 g and 22.4 g and 21.39 g and 22.91 g
